# Measured values as given in patent US20130171217A1, “ENZYMATIC PERACID GENERATION FOR USE IN SKIN CARE PRODUCTS” (E I DU PONT DE NEMOURS AND COMPANY, priority 2010, published 2013).
# Values joined by “and” are separate entries in the source; they are usually repeats but may differ in a detail not shown here. Equal values may be shown once.
# Tests used:
# [1] = Compatibility of perhydrolase with commercial moisturizer lotion, PAA indicator strip; type: physicochemical; details: ~0.1 mg/mL in lotion, room temperature (~21° C.)
# Method: Lotion “A” was prepared by mixing 0.7667 g of SUAVE® Advanced Therapy Moisturizer (Lot#12148JU41, Unilever, CT) with 40 μL of perhydrolase fusion C277S-HC263 (10 mg/mL) in a 2-mL microfuge using an overhead mixer at 200 rpm for about 3 min. The concentration of C277S-HC263 (SEQ ID NO: 288) was about 0.1 mg/mL in lotion A.
# Two control samples, i.e., A-control1 and A-control2, were prepared by replacing perhydrolase (C277S-HC263; SEQ ID NO: 288) with same volume of DI water and 50 mM phosphate buffer (pH 8), respectively.
# Solution “B” was made by combining 44 μl of triacetin, 899 μL of 50 mM, pH 8, phosphate buffer, and 57 μL of H2O2 (30 wt %). Solution B was freshly made every time just before running the PAA indicator strip test.
# After a predetermined time, 50 μl of lotion “A” and 50 μl of solution “B” were mixed gently for about 1 min. PAA indicator strips were used to test for the presence of PAA in the mixture as described in Example 10.
# [2] = One-step procedure on hair tresses, tress tensile strength; details: for hair tensile strength: pH 6.6, 10 μg/mL enzyme
# Text: COM-TEN® Tensile Tester 95-VD (Com-Ten Industries, Pinellas Park, Fla.), fitted with a 100 lb. (˜45.4 kg) load-cell was used for tensile tests. In order to reduce sample slippage, 5 mm wide strips of industrial grade VELCRO® (Velcro USA, Manchester, N.H.) were attached to the inside edges of the clamps. Before testing the CALIBRATION was set to “off”, FORCE UNITS were set to “grams” and the distance between the clamps was adjusted to 3 cm. The test sample was soaked in water for 30 seconds. Excess moisture was removed by gentle absorption on a paper towel, leaving enough moisture in hair for it to qualify as being at 100% humidity level. The glued edges of the test sample were clamped at both upper and lower clamps in such a way that the VELCRO® strips held the hair just below the glue. Tester speed was set to ˜2.5 inches by adjusting the speed control knob. With the Force meter in RUN mode, TARE was set to ZERO to set the starting PEAK FORCE to 0. To start the test the DIRECTION toggle switch was pressed to UP position. At the conclusion of the test, when the sample failed, the DIRECTION switch was moved to STOP and the peak force was recorded. The hair was cut off along the edge of the clamps at both lower and upper clamps. The clamps were opened and the stubs were removed, dried in air and weighed. The difference in original sample weight and combined weights of the stubs was the weight of the hair undergoing tensile elongation, and this quantity was used to calculate the tensile strength.
# Tensile Strength (N/mg hair)=Peak force (Newtons)/(Initial sample weight−weight of stubs)
# The hair tresses in these examples were cut from the stock medium brown hair swatches that were custom made by International Hair Importers (Glendale, N.Y.). Each hair tress was glued at one end, and cut at 5 mm width and 4 cm long (excluding the glued portion), with 100+/−20 mg net hair weight. For each test condition, triplicates of hair tresses were used. In the one-step procedure, each hair tress was placed in a clean plastic weighing tray (VWR, Cat. #12577-053), then 1 mL of the perhydrolase HC1121 solution in a buffer was applied to the hair tress, and was rubbed into the hair tress with an applicator. Then calculated amount of triacetin and 30% H2O2 were applied onto each hair tress and rubbed into the hair tress which gave 200 mM triacetin and 100 mM H2O2. The hair tress sat in this reaction mixture for 30 min, before being washed thoroughly with tap water followed by paper towel dry. This completed a 30 min treatment cycle. The treatment cycle was repeated 16 times. Hair tress became lighter-colored and weakened during the treatment. After final rinse and air-drying, tensile strength tests as described in Example 25 were conducted on each hair tress to quantify hair weakening. In addition, L*, a*, b* color measurements were taken for each hair sample to quantify hair color loss, and L*, a*, b* color measurements were also taken for untreated hair as a reference for ΔE color difference calculations. ΔE was calculated in the standard way as ΔE=((L*−L*ref)^2+(a*−a*ref)^2+(b*−b*ref)^2)^0.5. […] At pH 6, when 30 μg/mL HC1121 was used which gave 0.3 μg/mg hair E/H ratio, the tensile strength of treated hair tress reduced to 1.9 N/mg hair, approaching 1.5 N/mg hair, the benchmark strength of hair treated with NAIR® cream for 5 min. At pH 7, when 30 μg/mL HC1121 was used, the tensile strength of treated hair tress was 0.3 N/mg hair, much less than the 1.5 N/mg hair benchmark. Therefore, proper concentration of enzyme at proper pH could weaken hair effectively. The measured hair color loss for treated hair tresses correlated well with the weakening of hair: the greater hair weakening, the greater hair color loss. […]
# [3] = as above; details: 10 μg/mL HC1121, pH 6.6, 50 mM phosphate, 8 cycles
# [4] = 10 μg/mL HC1121, pH 6.6, 50 mM phosphate, 200 mM TA/100 mM H2O2, 24 hr/cycle, 8 cycles
# [5] = 10 μg/mL HC1121, pH 6.6, 50 mM phosphate, 200 mM TA/200 mM H2O2, 24 hr/cycle, 8 cycles
# [6] = 10 μg/mL HC1121, pH 6.6, 50 mM phosphate, 200 mM TA/300 mM H2O2, 24 hr/cycle, 8 cycles
# [7] = 10 μg/mL HC1121, pH 6.6, 50 mM phosphate, 200 mM TA/500 mM H2O2, 24 hr/cycle, 8 cycles
# [8] = 10 μg/mL HC1121, pH 6.6, 50 mM phosphate, 500 mM TA/500 mM H2O2, 24 hr/cycle, 8 cycles
# [9] = one-step, 30 μg/mL enzyme, pH 6, 30 min × 16, listed as HC1121
# [10] = one-step, 30 μg/mL enzyme, pH 7, 30 min × 16, listed as HC1121
# [11] = one-step, pH 6.6, 50 mM buffer, 30 min/cycle X 16 cycles, SLES wash each cycle
# [12] = one-step, pH 6.6, 50 mM buffer, 24 hr/cycle X 7 cycles, SLES wash each cycle
# [13] = one-step, pH 6.6, 100 mM buffer, 30 min/cycle X 16 cycles, SLES wash each cycle
# [14] = 200 mM TA/200 mM H2O2, 24 hr/cycle
molecule,measurement,setting,value
C277S-HC263: C277S variant of Thermotoga maritima perhydrolase fused via a flexible linker to hair-binding domain HC263 (protein) MAFFDLPLEELKKYRPERYEEKDFDEFWEETLAESEKFPLDPVFERMESHLKTVEAYDVTFSGYRGQRIKGWLLVPKLEEEKLPCVVQYIGYNGGRGFPHDWLFWPSMGYICFVMDTRGQGSGWLKGDTPDYPEGPVDPQYPGFMTRGILDPRTYYYRRVFTDAVRAVEAAASFPQVDQERIVIAGGSQGGGIALAVSALSKKAKALLCDVPFLCHFRRAVQLVDTHPYAEITNFLKTHRDKEEIVFRTLSYFDGVNFAARAKIPALFSVGLMDNISPPSTVFAAYNYYAGPKEIRIYPYNNHEGGGSFQAVEQVKFLKKLFEKGGPGSGGAGSPGSAGGPGSPSAQSQLPDKHSGLHERAPQRYGPEPEPEPEPIPEPPKEAPVVIEKPKPKPKPKPKPPAHDHKNQKETHQRHAAGSGGGGSPHHHHHH,time perhydrolase activity retained in SUAVE® moisturizer,[1],at least 30 days
same,"Strength N/mg Hair, average",[2]; [4],1.19 N/mg Hair
same,"Strength N/mg Hair, replicate1",[2]; [4],1.08 N/mg Hair
same,"Strength N/mg Hair, replicate2",[2]; [4],1.40 N/mg Hair
same,"Strength N/mg Hair, replicate3",[2]; [4],1.09 N/mg Hair
same,"Strength N/mg Hair, average",[2]; [5],0.86 N/mg Hair
same,"Strength N/mg Hair, replicate3",[2]; [5],0.99 N/mg Hair
same,"Strength N/mg Hair, average",[2]; [6],0.55 N/mg Hair
same,"Strength N/mg Hair, replicate1",[2]; [6],0.58 N/mg Hair
same,"Strength N/mg Hair, replicate2",[2]; [6],0.50 N/mg Hair
same,"Strength N/mg Hair, replicate3",[2]; [6],0.57 N/mg Hair
same,"Strength N/mg Hair, average",[2]; [7],0.45 N/mg Hair
same,"Strength N/mg Hair, replicate1",[2]; [7],0.39 N/mg Hair
same,"Strength N/mg Hair, replicate2",[2]; [7],0.38 N/mg Hair
same,"Strength N/mg Hair, replicate3",[2]; [7],0.58 N/mg Hair
same,"Strength N/mg Hair, average",[2]; [8],0.53 N/mg Hair
same,"Strength N/mg Hair, replicate1",[2]; [8],0.53 N/mg Hair
same,"Strength N/mg Hair, replicate3",[2]; [8],0.49 N/mg Hair
same,"Strength, replicates 1-3","[2]; one-step, 5 μg/mL enzyme, pH 6, 200 mM triacetin, 100 mM H2O2, 30 min × 16, listed as HC1121",2.89 N/mg Hair and 3.16 N/mg Hair and 3.03 N/mg Hair
same,"Strength, average","[2]; one-step, 5 μg/mL enzyme, pH 6, 30 min × 16",3.03 N/mg Hair
same,"Strength, average","[2]; one-step, 15 μg/mL enzyme, pH 6, 30 min × 16",2.95 N/mg Hair
same,"Strength, replicates 1-3","[2]; one-step, 15 μg/mL enzyme, pH 6, 30 min × 16, listed as HC1121",3.58 N/mg Hair and 2.54 N/mg Hair and 2.72 N/mg Hair
same,"Strength, average",[2]; [9],1.9 N/mg Hair and 1.86 N/mg Hair
same,"Strength, replicates 1-3",[2]; [9],1.77 N/mg Hair and 1.86 N/mg Hair and 1.95 N/mg Hair
same,"Strength, average",[2]; [10],0.3 N/mg Hair and 0.32 N/mg Hair
same,"Strength, replicates 1-3",[2]; [10],0.31 N/mg Hair and 0.33 N/mg Hair (2×)
same,hair tensile strength,"[2]; one-step, 200 mM triacetin, 100 mM H2O2, 8 cycles of 24 hr",1.2 N/mg hair
same,hair tensile strength,"[2]; one-step, H2O2 over 300 mM, 8 cycles of 24 hr",about 0.5 N/mg hair
same,"Strength N/mg Hair, average",[2]; [11],0.65 N/mg Hair
same,"Strength N/mg Hair, replicate1",[2]; [11],0.59 N/mg Hair
same,"Strength N/mg Hair, replicate2",[2]; [11],0.50 N/mg Hair
same,"Strength N/mg Hair, replicate3",[2]; [11],0.85 N/mg Hair
same,"Strength N/mg Hair, average",[2]; [12],0.82 N/mg Hair
same,"Strength N/mg Hair, replicate1",[2]; [12],0.86 N/mg Hair
same,"Strength N/mg Hair, replicate2",[2]; [12],0.94 N/mg Hair
same,"Strength N/mg Hair, replicate3",[2]; [12],0.66 N/mg Hair
same,"Strength N/mg Hair, average",[2]; [13],0.30 N/mg Hair
same,"Strength N/mg Hair, replicate1",[2]; [13],0.22 N/mg Hair
same,"Strength N/mg Hair, replicate2",[2]; [13],0.34 N/mg Hair
same,"Strength N/mg Hair, replicate3",[2]; [13],0.35 N/mg Hair
same,"Strength N/mg Hair, replicate1",[3]; [14],1.04 N/mg Hair
same,"Strength N/mg Hair, replicate2",[3]; [14],0.57 N/mg Hair
same,"Strength N/mg Hair, replicate2","[3]; 500 mM TA/500 mM H2O2, 24 hr/cycle",0.55 N/mg Hair
